The values that follow come from patent publication US10704056B2, “Constitutively active ABA receptor mutants” (The Regents of the University of California, priority 2011, dated 2020).

The assay has as its system ABA-regulated genes Em6, LEA and Rd29b. The experiment in a line: qRT-PCR of ABA-regulated genes in imbibed seeds. The class given is in vivo, Arabidopsis. Particulars: seeds imbibed 32 hours, no ABA treatment; 35S-driven lines. The procedure:
To investigate if other ABA responses are affected in the PYL2^CA3 lines, we profiled the expression levels of several ABA-regulated genes using quantitative RT-PCR (qRT-PCR). For these experiments, seeds of Col, 35S::PYL2, and two independent 35S:: PYL2^CA3 transgenic lines were imbibed for 32 hours in either water or 5 μM ABA at room temperature under continuous illumination, after which RNA was isolated using Concert™ Plant RNA Reagent and utilized in qRT-PCR reactions using primers for the ABA-regulated genes Em6 (At2g40170), LEA (At2g21490), and Rd29b (At5g52300). Biological duplicates with triple technical replicate measurements were conducted and gene expression levels were determined. […] Real-time quantitative PCR analysis was performed by ΔΔCt method of relative quantification. […]
Wild type or transgenic lines were imbibed for 32 hours in either water or 5 μM ABA at room temperature under continuous illumination, after which RNA was isolated using Concert™ Plant RNA Reagent followed by LiCl2 precipitation and DNase treated using RNase-free DNAse (Ambion). […] Biological duplicates with triple technical replicate measurements were conducted and gene expression levels were determined. […] Real-time quantitative PCR analysis was performed by ΔΔCt method of relative quantification. […]

B1: PYL2^CA3: PYL2 mutant (H65P, V87F, F165V); expressed in plants as 35S-driven GFP fusion (protein)
chain: HHHHHHMSSSPAVKGLTDEEQKTLEPVIKTYHQFEPDPTTCTSLITQRIHAPASVVWPLIRRFDNPERYKPFVKRCRLISGDGDVGSVREVTFISGLPASTSTERLEFVDDDHRVLSFRVVGGEHRLKNYKSVTSVNEFLNQDSGKVYTVVLESYTVDIPEGNTEEDTKMVVDTVVKLNLQKLGVAATSAPMHDDE
With B1, the “levels of ABA-regulated genes (Em6, LEA, Rd29b)” value is recorded as “elevated levels of ABA-regulated genes”.
